Reference: article PMC3627194, “Xentry, a new class of cell-penetrating peptide uniquely equipped for delivery of drugs” (Scientific Reports, 2013)
Non-standard residues stand in square brackets, D forms with d. Residues, ends and D or L forms follow the SMILES beside them. No end group written: not given here. *: point of attachment. FITC = O=C1OC2(c3ccc(O)cc3Oc3cc(O)ccc32)c2ccc(NC(=S)*)cc21; Biotin = O=C1N[C@H]2[C@H](CS[C@H]2CCCCC(=O)*)N1

Key:
HepG2 cells = assay: Assay to test for cell permeability of peptides; assay type: cell-based; settings: 3 h
Procedure: Figure 1 Cell-permeability of X-protein peptides. (a) X-protein peptides aa 1–20 and 16–35 are cell-permeable. Four FITC-labelled peptides encompassing aa 1–20, 16–35, 21–40 and 34–53 from the N-terminal region of the X-protein were incubated at 10 μM with HepG2 cells and their uptake by the cells recorded by confocal microscopy. Cell nuclei were stained blue with DAPI. (b) The sequence of the first 35 N-terminal residues of the HBV X-protein are shown with the sequence of Xentry (LCLRPVG; residues 16–22) highlighted in red. Short FITC-labelled peptides (10 μM) aa 16–26, 16–24 and 16–22 (Xentry) derived from peptide aa 16–35 also permeate HepG2 cells (upper panel). […] Cell nuclei were stained blue with DAPI. […] Cell nuclei were stained blue with DAPI. Scale bar, 50 μm.
HepG2 cells (ATCC, Manassas, VA) were seeded into 8-well chamber slides at 1 × 10^5 cells per well in MEM media (Gibco, Life Technologies New Zealand Ltd) containing 10% FCS and PSG. […] L-isomeric peptides were diluted in 500 μl of MEM media without FCS, whereas D-isomeric peptides were diluted in the same media containing FCS, and each added to cells at a final concentration of 10 μM, or as indicated. The cells were incubated for 3 h at 37°C in a 5% CO2 atmosphere, washed with PBS, fixed with 4% formaldehyde for 30 min, and washed thrice with PBS. A drop of Prolong Gold anti-fade reagent with DAPI (Invitrogen, Life Technologies New Zealand Ltd) was added, and the cells mounted and examined with a Nikon E600 fluorescence microscope or a Leica TCS-SP2 confocal microscope.
(§1) Supplementary Figure 3. The D-isomeric form of Xentry aa 16-22 is cell permeable, and is stable in serum for at least 4 h.
(§2) (a) FITC-labelled D-isomeric Xentry was incubated with HepG2 cells at concentrations of […] for 3 h.
(§3) Uptake was recorded by fluorescence microscopy. Cell nuclei were stained with DAPI. (b) FITC-labelled L-isomeric and D-isomeric forms of Xentry were incubated in serum for 0, 1, and 4 h before incubation with HepG2 cells. Cell nuclei were stained with DAPI. Scale bar, 50 μm. […]

syndecan-4 = target: T1, syndecan-4 (Homo sapiens, UniProt P31431); assay: Anti-syndecan 4 antibody blockade of Xentry uptake by HepG2 cells; assay type: cell-based; settings: FITC-lclrpvg 10 μM, 3 h
T1 construct: endogenous in cells; host or cells: HepG2 (ATCC)
T1 sequence (P31431 19-198): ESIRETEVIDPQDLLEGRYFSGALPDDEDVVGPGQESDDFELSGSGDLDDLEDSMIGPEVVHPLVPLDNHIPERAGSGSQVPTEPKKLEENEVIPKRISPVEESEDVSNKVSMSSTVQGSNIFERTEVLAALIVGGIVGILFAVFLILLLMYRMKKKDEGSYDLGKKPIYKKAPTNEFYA
Procedure: Cell nuclei were stained blue with DAPI. […] Scale bar, 50 μm.
The media was replaced with 500 μl of MEM media containing 10% FCS and either 1 μg/ml of a goat anti-human syndecan-4 antibody (R&D Systems, Minneapolis, MN), or 1 μg/ml of the control goat anti-human TNF-related apoptosis-inducing ligand (TRAIL) antibody (Santa Cruz Biotechnology Inc., Santa Cruz, CA). The cells were then incubated at 37°C and 5% CO2 for 30 min. FITC-labelled Xentry (FITC-lclrpvg) was added at a final concentration of 10 μM and the cells incubated for 3 h at 37°C in a 5% CO2 atmosphere. The cells were washed thrice with PBS, fixed with 4% formaldehyde for 15 min, washed with PBS, and DAPI added for visualization of cell nuclei. They were examined using a Nikon E600 fluorescence microscope, and photographed.

[1] = assay type: in vitro ADME; settings: FITC-labelled peptide incubated in serum 0, 1 and 4 h, then incubated with HepG2 cells; read-out cell uptake by fluorescence microscopy
Procedure: as §1, §2, §3

WM-266-4 melanoma cells [2] = assay: Apoptosis of melanoma cells by Xentry-conjugated anti-B-raf antibody (annexin-V fluos); assay type: cell-based; settings: annexin-V fluos staining
Procedure: HepG2 cells were seeded at 1 × 10^5 cells per well into 8-well chamber slides, and cultured overnight at 37°C in an atmosphere of 5% CO2. They were washed thrice with serum-free MEM media and resuspended in 500 μl of serum-free MEM. A 30 μl solution containing conjugation buffer, 0.85 μg of the Xentry peptide biotin-[sequence], 9 μg of a FITC-labelled rabbit IgG (Sigma, MO) or 1 μg of a rabbit polyclonal anti-B-raf antibody (Sigma, MO), and 4.8 μg of transglutaminase was incubated for 1 h at 37°C. The resulting conjugates were added to the cells, which were incubated for 3 h at 37°C and washed thrice with PBS. […] Cells incubated with the Xentry-anti-B-raf antibody conjugate were stained with annexin-V Fluos (Roche Diagnostics NZ Ltd., Auckland) to detect cell apoptosis. The cells were examined using a Nikon E600 fluorescence microscope, and photographed.

WM-266-4 melanoma cells [3] = assay: Xentry-KALA fusion peptide delivery of anti-B-raf siRNA, apoptosis (annexin-V fluos); assay type: cell-based; settings: 10 μM Xentry-KALA fusion peptide with 30 nM Tex615-labelled siRNA against B-raf, 72 h
Procedure: Figure 3 Xentry-mediated delivery of antibody and siRNA cargoes into cells. (a) Uptake of Xentry-conjugated and unconjugated FITC-labelled rabbit IgG by HepG2 cells. Cell nuclei were stained blue with DAPI. (b) Representative cell showing staining of tubulin by a Cy3-labelled anti-β-tubulin antibody delivered to HepG2 cells by Xentry. HepG2 cells were incubated with the Xentry- anti-β-tubulin antibody conjugate for 1 h, washed, then incubated and photographed 24 h later. For comparison, a representative fixed and permeabilized cell is shown which has been stained by the free anti-β-tubulin antibody. […] (c) The abilities of a Xentry-conjugated and unconjugated anti-B-raf antibody to induce the apoptosis of WM-266-4 melanoma cells, as evidenced by staining of cells with annexin-V fluos (green). […] For comparison, the anti-B-raf siRNA was transfected into cells using the PolyMag agent. The siRNA was omitted from controls. Scale bar, 50 μm.
A 600 μl solution was prepared containing 30 nM of a Tex615-labelled siRNA against B-raf (sense 5′-XAGAAUUGGAUCUGGAUCAUTTY-3′; antisense 5′-[…]-3′; X = C12 amino, Y = Tex615) (Integrated DNA Technologies, Iowa) and 10 μM of a Xentry-KALA fusion peptide (biotin-[…]; Peptide 2.0 Inc., Chantilly, VA). […] Cells were stained with annexin-V Fluos to detect apoptotic cells by fluorescence microscopy, and photographed. […]

[4] = Biodistribution of a Xentry-β-galactosidase conjugate in mice (X-gal staining); assay type: in vivo, Balb/c mice
Procedure: One milligram of recombinant β-galactosidase (Medicago AB, Uppsala, Sweden) was cross-linked to 0.2 mg of a FITC-labelled Xentry peptide fused to a polyglutamine stretch (FITC-lclrpvggrrQQQQQQrr; Peptide 2.0 Inc., Chantilly, VA) with 4.8 μg of transglutaminase in 40 μl of transglutaminase buffer for 1 h at 37°C. […] Control mice (one mouse per time point) were intravenously injected with 1 mg of unconjugated β-galactosidase. The heart, lungs, liver, spleen, pancreas, kidneys, stomach, small intestine, colon, muscle and brain of each mouse were collected, and frozen at −80°C. Frozen organ sections were fixed in 0.25% glutaraldehyde for 15 min, washed thrice with PBS and stained with 1 mg/ml of X-gal (Sigma, MO) for 3 h at 37°C. The sections were washed thrice with PBS, examined by light microscopy and photographed.

live HepG2 cells = settings: live unfixed cells, 3 h 37°C, β-galactosidase substrate C12FDG 10 min, fluorescence microscopy
Procedure: (a) Visualization of the internalization of an unlabelled Xentry-β-galactosidase conjugate, and unconjugated β-galactosidase, after a 10 min incubation with live cells preloaded with the green fluorescent substrate C12FDG.
HepG2 cells were seeded at 1 × 10^5 cells per well into 8-well chamber slides, and cultured overnight at 37°C in a 5% CO2 atmosphere. They were washed thrice with serum-free MEM media, and 500 μl of serum-free MEM added to the wells. A Xentry peptide (biotin-[sequence]; Peptide 2.0 Inc., Chantilly, VA) where LCLRP was fused to a polyglutamine stretch was conjugated to recombinant β-galactosidase. A 30 μl solution containing conjugation buffer (5 mM CaCl2, 1 mM DTT, 50 mM Tris-HCl), 0.84 μg of Xentry peptide, 16.5 μg of β-galactosidase (5 U; Sigma, MO), and 4.8 μg of transglutaminase (Ajinomoto, Itasca, IL) was incubated for 1 h at 37°C. The resulting conjugate was added to the cells, which were incubated for 3 h at 37°C. The cells were washed thrice with PBS, and the β-galactosidase substrate 5-dodecanoylaminofluorescein di-β-D-galactopyranoside (Imagene C12FDG; Invitrogen Life Technologies New Zealand Ltd) added, followed by incubation for 10 min at 37°C. The cells were washed, and examined using a Nikon E600 fluorescence microscope and photographed.

CC(C)C[C@@H](NC(=O)[C@@H](CS)NC(=O)[C@@H](CC(C)C)NC(=S)Nc1ccc2c(c1)C(=O)OC21c2ccc(O)cc2Oc2cc(O)ccc21)C(=O)N[C@H](CCCNC(=N)N)C(=O)N1CCC[C@@H]1C(=O)N[C@@H](C(=O)NCC(=O)O)C(C)C [D-isomeric form] ({FITC}-[dL][dC][dL][dR][dP][dV]G-OH)
Uptake into HepG2 cells at increasing concentrations (HepG2 cells; FITC-labelled D-isomeric Xentry 10, 20, 50 and 100 µM): increased uptake
Cell permeability (HepG2 cells) (HepG2 cells; FITC-labelled D-isomeric Xentry, media containing FCS, fluorescence microscopy): cell-permeable
Uptake by HepG2 cells after control anti-TRAIL antibody (syndecan-4; 1 μg/ml control antibody against TRAIL): no effect
Uptake by HepG2 cells after anti-syndecan-4 antibody (syndecan-4; 1 μg/ml goat anti-human syndecan-4 antibody 30 min pre-incubation, MEM 10% FCS): blocked
Time stable in serum [1]: at least 4 h

Biotin-LCLRPVGGGRRRQQQQQQRRR [Xentry-anti-B-raf antibody conjugate, rabbit polyclonal anti-B-raf antibody conjugated to Xentry polyglutamine peptide]
Apoptosis of WM-266-4 melanoma cells (WM-266-4 melanoma cells [2]): undergo apoptosis

Biotin-LCLRPVGGGWEAKLAKALAKALAKHLAKALAKALKACEA (cysteine pairing not given here) [Xentry-KALA fusion peptide, tested as complex with anti-B-raf siRNA]
Apoptosis of WM-266-4 melanoma cells (WM-266-4 melanoma cells [3]): causing cell apoptosis

FITC-lclrpvggrrQQQQQQrr [Xentry-β-galactosidase conjugate, recombinant β-galactosidase cross-linked to FITC-labelled D-form Xentry polyglutamine peptide (injected into mice)]
Retention in stained organs at 1 h, except for the brain ([4]; 1 mg i.v., 1 h, intensity of staining diminished): retained the bioactive conjugate
β-galactosidase activity in organs at 6 h ([4]; 1 mg i.v., 6 h): only the spleen and small intestine retained some β-galactosidase activity
β-galactosidase activity in organs by 24 h ([4]; 1 mg i.v., 24 h, data not shown): completely lost
Distribution within organs ([4]; 1 mg i.v., X-gal stained sections): concentrated in the enterocytes of the small intestine, epithelium of the stomach, and in the marginal zone or marginal sinus of the spleen
Staining of pancreas, colon and muscle at 15 min ([4]; 1 mg i.v., data not shown): poorly stained
X-gal staining of organs at 15 min ([4]; 1 mg i.v., lungs, liver, spleen, kidneys, stomach, small intestine, colon, muscle, brain listed as stained): most of the organs stained blue

unconjugated β-galactosidase: recombinant β-galactosidase without Xentry, control [reference compound]
X-gal staining of organs ([4]; 1 mg unconjugated β-galactosidase i.v., one mouse per time point, data not shown): did not stain
Uptake by live HepG2 cells (live HepG2 cells): not
